According to PMC8442604 (Frontiers in Immunology, 2021):

B1: CB6H-XG83L (antibody, V domains shown)
VH: EVQLVESGGGLVQPGGSLRLSCAASGFTVSSNYMSWVRQAPGKGLEWVSVIYSGGSTFYADSVKGRFTISRDNSMNTLFLQMNSLRAEDTAVYYCARVLPMYGDYLDYWGQGTLVTVSS
VL: QSVLTQPPSVSGAPGQRVTISCTGSSSNIGAGYDVHWYQQLPGTAPKLLIYGDSNRPSGVPDRFSGSKSGTSASLAITGLQAEDEADFYCQSYDSSLSTSIFGGGTKLTVL
B2: B38 (antibody, V domains shown)
VH: EVQLVESGGGLVQPGGSLRLSCAASGFIVSSNYMSWVRQAPGKGLEWVSVIYSGGSTYYADSVKGRFTISRHNSKNTLYLQMNSLRAEDTAVYYCAREAYGMDVWGQGTTVTVSS
VL: DIVMTQSPSFLSASVGDRVTITCRASQGISSYLAWYQQKPGKAPKLLIYAASTLQSGVPSRFSGSGSGTEFTLTISSLQPEDFATYYCQQLNSYPPYTFGQGTKLEIK
B3: CC12.3 (antibody, V domains shown)
VH: QVQLVESGGGLIQPGGSLRLSCAASGFTVSSNYMSWVRQAPGKGLEWVSVIYSGGSTFYADSVKGRFTISRDNSKSTLYLQMNSLRVEDTAVYYCARDFGDFYFDYWGQGTLVTVSS
VL: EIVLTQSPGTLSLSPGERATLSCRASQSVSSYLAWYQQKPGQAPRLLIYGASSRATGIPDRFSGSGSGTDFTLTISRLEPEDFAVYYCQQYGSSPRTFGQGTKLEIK
B4: LCA60 (antibody, V domains shown)
VH: EVQLLESGGGLVKPGGSLRLSCEASGLTFSNVWMSWVRQAPGKGLEWVGRIKRKSEGATTDYGAPVKGRFTLSRDDSKNTVYLQMNSLKIDDTAVYYCSTLTRGGDVWSSSYYFDYWGQGALVTVSS
VL: QSALTQPASVSGSPGQSITISCTGTSSDVGTYDLVSWYQQHPGKSPKLMIYADIKRPSGVSHRFSGSKSGNTASLTISGLQSADEADYYCCLYAGSSTSVIFGGGTKVT
notes: also called MERS nAb LCA60
B5: EY6A (antibody, V domains shown)
VH: EVQLVESGGGVVQPGRSLRLSCAASAFTFSSYDMHWVRQAPGKGLEWVAVISYDGSNKYYADSVKGRFTISRDNSKNTLYLQMNSLRAEDTAVYYCAKDGGKLWVYYFDYWGQGTLVTVSS
VL: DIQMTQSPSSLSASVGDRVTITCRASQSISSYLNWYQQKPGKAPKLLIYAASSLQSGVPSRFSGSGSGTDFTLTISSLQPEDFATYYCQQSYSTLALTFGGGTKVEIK
B6: 4A8 (antibody, V domains shown)
VH: EVQLVESGAEVKKPGASVKVSCKVSGYTLTELSMHWVRQAPGKGLEWMGGFDPEDGETMYAQKFQGRVTMTEDTSTDTAYMELSSLRSEDTAVYYCATSTAVAGTPDLFDYYYGMDVWGQGTTVTVSS
VL: EIVMTQSPLSSPVTLGQPASISCRSSQSLVHSDGNTYLSWLQQRPGQPPRLLIYKISNRFSGVPDRFSGSGAGTDFTLKISRVEAEDVGVYYCTQATQFPYTFGQGTKVDIK
B7: C105 (antibody, V domains shown)
VH: QVQLVESGGGLIQPGGSLRLSCAASGFTVSSNYMSWVRQAPGKGLEWVSVIYSGGSTYYADSVKGRFTISRDNSKNTLYLQMNSLRAEDTAVYYCARGEGWELPYDYWGQGTLVTVSS
VL: QSALTQPPSASGSPGQSVTISCTGTSSDVGGYKYVSWYQQHPGKAPKLMIYEVSKRPSGVPDRFSGSKSGNTASLTVSGLQAEDEADYYCSSYEGSNNFVVFGGGTKLTVL
B8: 2-4 (antibody, V domains shown)
VH: QVQLVQSGAEVKKPGASVKVSCKASGYTFTGYYMHWVRQAPGQGLEWMGWINPNSGGTNYTQMFQGRVTMTRDTSISTAYMEVSRLRSDDTAVYYCARDRSWAVVYYYMDVWGKGTTVTVSS
VL: QSALTQPPSASGSPGQSVTISCTGTSSDVGGYNYVSWYQQHPGKAPKLMIYEVSKRPSGVPDRFSGSKSGNTASLTVSGLQAEDEADYYCSSYAGSNNLVFGGGTKLTVL
B9: REGN10933 (antibody, V domains shown)
VH: QVQLVESGGGLVKPGGSLRLSCAASGFTFSDYYMSWIRQAPGKGLEWVSYITYSGSTIYYADSVKGRFTISRDNAKSSLYLQMNSLRAEDTAVYYCARDRGTTMVPFDYWGQGTLVTVSS
VL: DIQMTQSPSSLSASVGDRVTITCQASQDITNYLNWYQQKPGKAPKLLIYAASNLETGVPSRFSGSGSGTDFTFTISGLQPEDIATYYCQQYDNLPLTFGGGTKVEIK
B10: REGN10987 (antibody, V domains shown)
VH: QVQLVESGGGVVQPGRSLRLSCAASGFTFSNYAMYWVRQAPGKGLEWVAVISYDGSNKYYADSVKGRFTISRDNSKNTLYLQMNSLRTEDTAVYYCASGSDYGDYLLVYWGQGTLVTVSS
VL: QSALTQPASVSGSPGQSITISCTGTSSDVGGYNYVSWYQQHPGKAPKLMIYDVSKRPSGVSNRFSGSKSGNTASLTISGLQSEDEADYYCNSLTSISTWVFGGGTKLTVL
B11: CB6 (antibody, V domains shown)
VH: EVQLVESGGGLVQPGGSLRLSCAASGFTVSSNYMSWVRQAPGKGLEWVSVIYSGGSTFYADSVKGRFTISRDNSMNTLFLQMNSLRAEDTAVYYCARVLPMYGDYLDYWGQGTLVTVSS
VL: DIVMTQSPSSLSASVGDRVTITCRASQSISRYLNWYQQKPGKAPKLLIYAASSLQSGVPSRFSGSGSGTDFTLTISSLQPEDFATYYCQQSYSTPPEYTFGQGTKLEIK

The binders below were run against T1, SARS-CoV-2 RBD protein (321–591) (SARS-CoV-2, Wuhan-Hu-1 (MN908947), UniProt P0DTC2) (assay: cell-based or functional assay). Conditions: not given.
With B1 the “IC50 of neutralisation of authentic SARS-CoV-2 on Vero E6 cells (CPE assay)” value was 1.1 µg/mL.

The binders below were run against T1, SARS-CoV-2 RBD protein (321–591) (assay: ELISA). Conditions: one partner purified.
B2: binds. B3: binds. B4: no binding. B5: binds. B6: no binding. B7: binds. B8: binds. B9: binds. B10: binds.

Each binder was assayed against T1, SARS-CoV-2 RBD protein (321–591) (assay: SPR). Conditions: both partners purified.
With B1 the Kd was 0.58 nM. B11 gave a Kd of 43.8 nM.
